Assay results from patent publication US20230220016A1.

Biological target: 434cI-SH2 (SH2 domain of ABL1 kinase fused to 434 cI repressor) (434 phage) (UniProt P16117)
Assay: cell-based or functional assay

transcriptional activation, bacterial 2-hybrid, wild type PlacZ promoter: 17 fold
Substance: RpoZ-HA4 (monobody HA4 fused to RpoZ) (from UniProt P0A800 1-91) (designed binder)
transcriptional activation, bacterial 2-hybrid, sensitized promoter PlacZ-opt: 200 fold
